Data reported in article PMC10397247.

Columns and labels:
Experiment in all cases: two-hybrid library CCNG1;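 note: natural log of median RNA to DNA barcode read ratio; higher means stronger binding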
4H2253-bH = biological target: T1, 4H2253-bH
T1 chain: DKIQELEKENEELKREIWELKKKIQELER

4H3364-bH = biological target: T2, 4H3364-bH
T2 chain: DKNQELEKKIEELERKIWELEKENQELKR

4H2233-bH = biological target: T3, 4H2233-bH
T3 chain: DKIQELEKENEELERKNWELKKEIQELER

4H2585-bH = biological target: T4, 4H2585-bH
T4 chain: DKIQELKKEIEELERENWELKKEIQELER

4H319-bH = biological target: T5, 4H319-bH
T5 chain: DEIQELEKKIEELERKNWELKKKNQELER

4H3297-bH = biological target: T6, 4H3297-bH
T6 chain: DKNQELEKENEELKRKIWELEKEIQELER

O5 = biological target: T7, O5
T7 chain: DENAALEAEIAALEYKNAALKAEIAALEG

4H56-bH = biological target: T8, 4H56-bH
T8 chain: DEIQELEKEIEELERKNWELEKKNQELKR

4H2444-bH = biological target: T9, 4H2444-bH
T9 chain: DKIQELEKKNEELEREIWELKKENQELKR

4H949-bH = biological target: T10, 4H949-bH
T10 chain: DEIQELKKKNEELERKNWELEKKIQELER

4H235-bH = biological target: T11, 4H235-bH
T11 chain: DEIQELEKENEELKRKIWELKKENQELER

4H264-bH = biological target: T12, 4H264-bH
T12 chain: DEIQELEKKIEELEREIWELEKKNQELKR

4H2931-bH = biological target: T13, 4H2931-bH
T13 chain: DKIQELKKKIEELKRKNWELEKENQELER

4H2760-bH = biological target: T14, 4H2760-bH
T14 chain: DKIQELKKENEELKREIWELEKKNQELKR

4H796-bH = biological target: T15, 4H796-bH
T15 chain: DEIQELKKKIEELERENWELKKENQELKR

4H3041-bH = biological target: T16, 4H3041-bH
T16 chain: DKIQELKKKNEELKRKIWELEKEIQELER

4H2859-bH = biological target: T17, 4H2859-bH
T17 chain: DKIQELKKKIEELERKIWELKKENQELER

4H730-bH = biological target: T18, 4H730-bH
T18 chain: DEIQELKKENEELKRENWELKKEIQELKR

4H3381-bH = biological target: T19, 4H3381-bH
T19 chain: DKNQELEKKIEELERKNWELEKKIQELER

4H349-bH = biological target: T20, 4H349-bH
T20 chain: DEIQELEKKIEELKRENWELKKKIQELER

4H932-bH = biological target: T21, 4H932-bH
T21 chain: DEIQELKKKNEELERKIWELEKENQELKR

4H2518-bH = biological target: T22, 4H2518-bH
T22 chain: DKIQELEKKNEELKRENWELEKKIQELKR

P6bH1 = biological target: T23, P6bH1
T23 chain: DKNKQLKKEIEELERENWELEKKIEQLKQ

P8bH1 = biological target: T24, P8bH1
T24 chain: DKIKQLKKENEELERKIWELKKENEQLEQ

P9bH1 = biological target: T25, P9bH1
T25 chain: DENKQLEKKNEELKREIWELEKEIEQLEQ

P4bH1 = biological target: T26, P4bH1
T26 chain: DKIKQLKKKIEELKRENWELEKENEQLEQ

P5bH1 = biological target: T27, P5bH1
T27 chain: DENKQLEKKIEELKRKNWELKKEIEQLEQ

P3bH1 = biological target: T28, P3bH1
T28 chain: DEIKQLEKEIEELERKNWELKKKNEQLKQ

P7bH1 = biological target: T29, P7bH1
T29 chain: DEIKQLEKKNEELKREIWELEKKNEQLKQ

P2bH1 = biological target: T30, P2bH1
T30 chain: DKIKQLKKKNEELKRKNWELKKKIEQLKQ

Work on DKIQELEKENEELERKNWELKKEIQELER [4H2233-bH] yielded an interaction score (4H2253-bH) of -0.0513, an interaction score (4H3364-bH) of -0.899 and an interaction score (4H2233-bH) of 0.18. It also gave an interaction score (4H2585-bH) of -0.529, an interaction score (4H319-bH) of -0.931 and an interaction score (4H3297-bH) of -0.069. The interaction score (O5) was -1.37, the interaction score (4H56-bH) was -1.28 and the interaction score (4H2444-bH) was -0.446. The interaction score (4H949-bH) was -0.96, the interaction score (4H235-bH) was -0.93 and the interaction score (4H264-bH) was -0.0896. It also gave an interaction score (4H2931-bH) of -0.862, an interaction score (4H2760-bH) of -0.804 and an interaction score (4H796-bH) of -0.815. It also gave an interaction score (4H3041-bH) of -0.641, an interaction score (4H2859-bH) of -0.442 and an interaction score (4H730-bH) of -0.961. For the same binder, the interaction score (4H3381-bH) was -0.723, the interaction score (4H349-bH) was 0.0715 and the interaction score (4H932-bH) was -1.01. The interaction score (4H2518-bH) was 1.4.

DKIKQLKKKNEELKRKNWELKKKIEQLKQ [P2bH1] was tested, and the interaction score (P6bH1) was -1.16, the interaction score (P8bH1) was -0.331 and the interaction score (P9bH1) was 0.693. The interaction score (P4bH1) was -0.137, the interaction score (P5bH1) was -0.796 and the interaction score (P3bH1) was -0.234. It also gave an interaction score (P7bH1) of 0.231 and an interaction score (P2bH1) of -0.432.
